Reference: IntAct's records for PubMed 31515488

B1: Low-density lipoprotein receptor class A domain-containing protein 1 (Homo sapiens), Q5T700 (parent)
chain: MNKVFPQGENGYTAAESKAHPGGEAGGGHLCCSRRGACLSASLLLLLATVAALIALVTILGLPSCTPGAQACITLTNRTGFLCHDQRSCIPASGVCDGVRTCTHGEDEDESLCRDVPQSLPHFLVAHCGDPASWIYSDQKCDGTNNCGDCSDELSPVTVCPPCGPGWWRCPSTFFKYCDCIPRHLCRDHVQHCSDWSDEYACPGP
B2: Transmembrane protein 79 (Homo sapiens), Q9BSE2 (parent)
chain: MTEQETLALLEVKRSDSPEKSSPQALVPNGRQPEGEGGAESPGAESLRVGSSAGSPTAIEGAEDGLDSTVSEAATLPWGTGPQPSAPFPDPPGWRDIEPEPPESEPLTKLEELPEDDANLLPEKAARAFVPIDLQCIERQPQEDLIVRCEAGEGECRTFMPPRVTHPDPTERKWAEAVVRPPGCSCGGCGSCGDREWLRAVASVGAALILFPCLLYGAYAFLPFDVPRLPTMSSRLIYTLRCGVFATFPIVLGILVYGLSLLCFSALRPFGEPRREVEIHRRYVAQSVQLFILYFFNLAVLSTYLPQDTLKLLPLLTGLFAVSRLIYWLTFAVGRSFRGFGYGLTFLPLLSMLMWNLYYMFVVEPERMLTATESRLDYPDHARSASDYRPRPWG
partner: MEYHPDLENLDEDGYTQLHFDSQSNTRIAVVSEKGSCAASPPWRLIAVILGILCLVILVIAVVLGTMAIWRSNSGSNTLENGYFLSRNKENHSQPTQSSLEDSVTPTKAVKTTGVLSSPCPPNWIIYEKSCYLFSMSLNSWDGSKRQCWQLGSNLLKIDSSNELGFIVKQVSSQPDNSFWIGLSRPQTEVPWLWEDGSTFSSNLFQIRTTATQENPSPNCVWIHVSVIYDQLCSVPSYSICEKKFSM
B3: Tektin-3 (Homo sapiens), Q9BXF9 (parent)
chain: MERVGCTLTTTYAHPRPTPTNFLPAISTMASSYRDRFPHSNLTHSLSLPWRPSTYYKVASNSPSVAPYCTRSQRVSENTMLPFVSNRTTFFTRYTPDDWYRSNLTNYQESNTSRHNSEKLRVDTSRLIQDKYQQTRKTQADTTQNLGERVNDIGFWKSEIIHELDEMIGETNALTDVKKRLERALMETEAPLQVARECLFHREKRMGIDLVHDEVEAQLLTEVDTILCCQERMKLHLDKAIAQLAANRASQHELEKDLSDKQTAYRIDDKCHHLRNTSDGVGYFRGVERVDATVSVPESWAKFTDDNILRSQSERAASAKLRDDIENLLVVTANEMWNQFNKVNLSFTNRIAETADAKNKIQTHLAKTLQEIFQTEMTIESIKKAIKDKTAFLKVAQTRLDERTRRPNIELCRDMAQLRLVNEVHEVDDTIQTLQQRLRDAEDTLQSLVHIKATLEYDLAVKANSLYIDQEKCMSMRKSYPNTLRLVGFC
partner: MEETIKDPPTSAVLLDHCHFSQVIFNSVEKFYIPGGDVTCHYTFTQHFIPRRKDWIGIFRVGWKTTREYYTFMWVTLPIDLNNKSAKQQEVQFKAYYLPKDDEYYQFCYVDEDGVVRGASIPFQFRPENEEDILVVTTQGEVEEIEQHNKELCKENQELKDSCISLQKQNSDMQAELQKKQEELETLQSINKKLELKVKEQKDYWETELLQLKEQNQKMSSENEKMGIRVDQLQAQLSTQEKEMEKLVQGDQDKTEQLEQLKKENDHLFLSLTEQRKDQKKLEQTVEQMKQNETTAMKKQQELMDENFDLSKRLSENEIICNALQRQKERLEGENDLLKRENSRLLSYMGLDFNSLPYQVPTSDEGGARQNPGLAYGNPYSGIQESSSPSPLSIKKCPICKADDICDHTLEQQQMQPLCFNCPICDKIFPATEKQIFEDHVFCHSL
B4: Syntenin-1 (Homo sapiens), O00560 (parent)
chain: MSLYPSLEDLKVDKVIQAQTAFSANPANPAILSEASAPIPHDGNLYPRLYPELSQYMGLSLNEEEIRANVAVVSGAPLQGQLVARPSSINYMVAPVTGNDVGIRRAEIKQGIREVILCKDQDGKIGLRLKSIDNGIFVQLVQANSPASLVGLRFGDQVLQINGENCAGWSSDKAHKVLKQAFGEKITMTIRDRPFERTITMHKDSTGHVGFIFKNGKITSIVKDSSAARNGLLTEHNICEINGQNVIGLKDSQIADILSTSGTVVTITIMPAFIFEHIIKRMAPSIMKSLMDHTIPEV
partner: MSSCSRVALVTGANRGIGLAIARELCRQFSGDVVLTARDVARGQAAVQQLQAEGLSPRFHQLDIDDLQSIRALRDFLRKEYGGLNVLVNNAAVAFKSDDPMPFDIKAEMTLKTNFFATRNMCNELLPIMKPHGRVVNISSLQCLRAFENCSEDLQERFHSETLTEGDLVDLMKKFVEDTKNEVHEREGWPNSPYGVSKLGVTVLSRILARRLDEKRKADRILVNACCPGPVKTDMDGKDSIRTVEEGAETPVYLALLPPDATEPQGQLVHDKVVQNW
B5: Dynein light chain 2, cytoplasmic (Homo sapiens), Q96FJ2 (parent)
chain: MSDRKAVIKNADMSEDMQQDAVDCATQAMEKYNIEKDIAAYIKKEFDKKYNPTWHCIVGRNFGSYVTHETKHFIYFYLGQVAILLFKSG
B6: Maspardin (Homo sapiens), Q9NZD8 (parent)
chain: MGEIKVSPDYNWFRGTVPLKKIIVDDDDSKIWSLYDAGPRSIRCPLIFLPPVSGTADVFFRQILALTGWGYRVIALQYPVYWDHLEFCDGFRKLLDHLQLDKVHLFGASLGGFLAQKFAEYTHKSPRVHSLILCNSFSDTSIFNQTWTANSFWLMPAFMLKKIVLGNFSSGPVDPMMADAIDFMVDRLESLGQSELASRLTLNCQNSYVEPHKIRDIPVTIMDVFDQSALSTEAKEEMYKLYPNARRAHLKTGGNFPYLCRSAEVNLYVQIHLLQFHGTKYAAIDPSMVSAEELEVQKGSLGISQEEQ
partner: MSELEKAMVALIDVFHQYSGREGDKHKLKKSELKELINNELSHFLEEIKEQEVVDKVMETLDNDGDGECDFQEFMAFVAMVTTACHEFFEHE
B7: Cancer/testis antigen 2 (Homo sapiens), O75638 (parent)
chain: MQAEGRGTGGSTGDADGPGGPGIPDGPGGNAGGPGEAGATGGRGPRGAGAARASGPRGGAPRGPHGGAASAQDGRCPCGARRPDSRLLELHITMPFSSPMEAELVRRILSRDAAPLPRPGAVLKDFTVSGNLLFMSVRDQDREGAGRMRVVGWGLGSASPEGQKARDLRTPKHKVSEQRPGTPGPPPPEGAQGDGCRGVAFNVMFSAPHI

Variants of: B1
Settings: with bni3l_human BNIP3L
With G105S the “effect of a mutation on the interaction” value was “with no effect”.

Variants of: B1
Settings: with tm147_human TMEM147, Q9BVK8
tm147_human TMEM147, Q9BVK8, sequence (Q9BVK8 whole entry): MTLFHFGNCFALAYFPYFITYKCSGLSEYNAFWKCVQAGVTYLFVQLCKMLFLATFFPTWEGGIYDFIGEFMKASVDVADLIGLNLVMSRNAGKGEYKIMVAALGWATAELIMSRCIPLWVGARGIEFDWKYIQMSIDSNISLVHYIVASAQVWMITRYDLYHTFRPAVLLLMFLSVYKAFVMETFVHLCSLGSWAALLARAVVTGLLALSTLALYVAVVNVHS
With G105S the “effect of a mutation on the interaction” value was “with no effect”.

Variants of: B1
Settings: with mal_human MAL
For G105S, the “effect of a mutation on the interaction” value was “with no effect”.

Variants of: B2
Settings: with clc7a_human CLEC7A
For V322I, the “effect of a mutation on the interaction” value was “with no effect”.

Variants of: B3
Settings: with caco2_human CALCOCO2, Q13137
Q129K was tested, and the “effect of a mutation on the interaction” value was “with no effect”. For G282A, the “effect of a mutation on the interaction” value was “with no effect”. For R196Q, the “effect of a mutation on the interaction” value was “with no effect”.

Variants of: B4
Settings: with cbr3_human CBR3, O75828
K124R was tested, and the “effect of a mutation on the interaction” value was “with no effect”.

Variants of: B5
Settings: with tha10_human THAP10, Q9P2Z0
tha10_human THAP10, Q9P2Z0, sequence (Q9P2Z0 whole entry): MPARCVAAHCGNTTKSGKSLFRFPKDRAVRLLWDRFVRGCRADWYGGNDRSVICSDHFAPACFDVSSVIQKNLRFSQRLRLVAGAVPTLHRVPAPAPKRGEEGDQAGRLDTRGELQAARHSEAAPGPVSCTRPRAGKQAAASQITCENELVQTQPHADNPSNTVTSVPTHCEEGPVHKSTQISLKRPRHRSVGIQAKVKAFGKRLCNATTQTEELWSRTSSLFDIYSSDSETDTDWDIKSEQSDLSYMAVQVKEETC
N33S was tested, and the “effect of a mutation on the interaction” value was “with no effect”.

Variants of: B6
Settings: with S100B
In the case of A180T, the “effect of a mutation on the interaction” value is reported as “disrupting interaction strength”. H272D was tested, and the “effect of a mutation on the interaction” value was “disrupting interaction strength”.

Variants of: B7
Settings: with ubql1_human UBQLN1, Q9UMX0
ubql1_human UBQLN1, Q9UMX0, sequence (Q9UMX0 whole entry): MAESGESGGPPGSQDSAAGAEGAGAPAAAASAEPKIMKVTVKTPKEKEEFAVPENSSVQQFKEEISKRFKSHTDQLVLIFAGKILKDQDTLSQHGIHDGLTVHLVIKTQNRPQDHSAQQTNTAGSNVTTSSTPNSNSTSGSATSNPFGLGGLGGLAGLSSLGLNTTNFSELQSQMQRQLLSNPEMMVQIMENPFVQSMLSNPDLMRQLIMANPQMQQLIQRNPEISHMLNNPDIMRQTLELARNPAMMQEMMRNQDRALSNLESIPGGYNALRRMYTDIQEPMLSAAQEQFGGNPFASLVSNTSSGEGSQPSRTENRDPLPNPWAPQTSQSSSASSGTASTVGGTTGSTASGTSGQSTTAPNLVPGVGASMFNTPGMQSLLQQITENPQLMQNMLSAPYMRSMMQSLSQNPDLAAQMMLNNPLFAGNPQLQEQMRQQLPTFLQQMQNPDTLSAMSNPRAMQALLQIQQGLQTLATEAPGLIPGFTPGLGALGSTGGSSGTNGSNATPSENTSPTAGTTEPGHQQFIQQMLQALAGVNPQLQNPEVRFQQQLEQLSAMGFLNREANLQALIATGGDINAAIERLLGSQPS
A80T was tested, and the “effect of a mutation on the interaction” value was “with no effect”.

Variants of: B7
Settings: with trip6_human TRIP6, Q15654
trip6_human TRIP6, Q15654, sequence (Q15654 whole entry): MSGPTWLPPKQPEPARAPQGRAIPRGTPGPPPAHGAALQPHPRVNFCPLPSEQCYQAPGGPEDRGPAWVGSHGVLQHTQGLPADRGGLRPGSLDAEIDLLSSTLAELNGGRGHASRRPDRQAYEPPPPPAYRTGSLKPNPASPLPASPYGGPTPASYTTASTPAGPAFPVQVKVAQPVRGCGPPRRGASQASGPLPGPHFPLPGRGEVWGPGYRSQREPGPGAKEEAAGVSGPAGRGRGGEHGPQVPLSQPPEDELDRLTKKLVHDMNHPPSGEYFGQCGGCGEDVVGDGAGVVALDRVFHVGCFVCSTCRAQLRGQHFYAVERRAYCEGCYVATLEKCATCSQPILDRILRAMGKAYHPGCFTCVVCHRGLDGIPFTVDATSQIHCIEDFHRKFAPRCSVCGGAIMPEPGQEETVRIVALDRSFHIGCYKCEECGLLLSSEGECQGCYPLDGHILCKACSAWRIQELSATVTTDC
A80T was tested, and the “effect of a mutation on the interaction” value was “with no effect”.
